Data published in patent publication US20150299281A1 (ZEALAND PHARMA A S, published 2015).
Square brackets hold non-standard residues; d marks the D form. Aib = CC(C)(N)C(=O)O

B1: Compound 23 (peptide)
peptide: H-Y[Aib]EGTFTSDYSIYLDKKAQRAFVNWLKA[Aib]K-NH2
SMILES: CC[C@H](C)[C@H](NC(=O)[C@H](CO)NC(=O)[C@H](Cc1ccc(O)cc1)NC(=O)[C@H](CC(=O)O)NC(=O)[C@H](CO)NC(=O)[C@@H](NC(=O)[C@H](Cc1ccccc1)NC(=O)[C@@H](NC(=O)CNC(=O)[C@H](CCC(=O)O)NC(=O)C(C)(C)NC(=O)[C@@H](N)Cc1ccc(O)cc1)[C@@H](C)O)[C@@H](C)O)C(=O)N[C@@H](Cc1ccc(O)cc1)C(=O)N[C@@H](CC(C)C)C(=O)N[C@@H](CC(=O)O)C(=O)N[C@@H](CCCCN)C(=O)N[C@@H](CCCCN)C(=O)N[C@@H](C)C(=O)N[C@@H](CCC(N)=O)C(=O)N[C@@H](CCCNC(=N)N)C(=O)N[C@@H](C)C(=O)N[C@@H](Cc1ccccc1)C(=O)N[C@H](C(=O)N[C@@H](CC(N)=O)C(=O)N[C@@H](Cc1c[nH]c2ccccc12)C(=O)N[C@@H](CC(C)C)C(=O)N[C@@H](CCCCN)C(=O)N[C@@H](C)C(=O)NC(C)(C)C(=O)N[C@@H](CCCCN)C(N)=O)C(C)C
B2: Compound 21 (peptide)
peptide: H-Y[Aib]EGTFTSDYSIYLDKKAQRAFVNWLVA[Aib]K-NH2
SMILES: CC[C@H](C)[C@H](NC(=O)[C@H](CO)NC(=O)[C@H](Cc1ccc(O)cc1)NC(=O)[C@H](CC(=O)O)NC(=O)[C@H](CO)NC(=O)[C@@H](NC(=O)[C@H](Cc1ccccc1)NC(=O)[C@@H](NC(=O)CNC(=O)[C@H](CCC(=O)O)NC(=O)C(C)(C)NC(=O)[C@@H](N)Cc1ccc(O)cc1)[C@@H](C)O)[C@@H](C)O)C(=O)N[C@@H](Cc1ccc(O)cc1)C(=O)N[C@@H](CC(C)C)C(=O)N[C@@H](CC(=O)O)C(=O)N[C@@H](CCCCN)C(=O)N[C@@H](CCCCN)C(=O)N[C@@H](C)C(=O)N[C@@H](CCC(N)=O)C(=O)N[C@@H](CCCNC(=N)N)C(=O)N[C@@H](C)C(=O)N[C@@H](Cc1ccccc1)C(=O)N[C@H](C(=O)N[C@@H](CC(N)=O)C(=O)N[C@@H](Cc1c[nH]c2ccccc12)C(=O)N[C@@H](CC(C)C)C(=O)N[C@H](C(=O)N[C@@H](C)C(=O)NC(C)(C)C(=O)N[C@@H](CCCCN)C(N)=O)C(C)C)C(C)C
B3: Compound 16 (peptide)
peptide: H-Y[Aib]EGTFTSDYSIYLDSKAQRAFVNWLLA[Aib]K-NH2
SMILES: CC[C@H](C)[C@H](NC(=O)[C@H](CO)NC(=O)[C@H](Cc1ccc(O)cc1)NC(=O)[C@H](CC(=O)O)NC(=O)[C@H](CO)NC(=O)[C@@H](NC(=O)[C@H](Cc1ccccc1)NC(=O)[C@@H](NC(=O)CNC(=O)[C@H](CCC(=O)O)NC(=O)C(C)(C)NC(=O)[C@@H](N)Cc1ccc(O)cc1)[C@@H](C)O)[C@@H](C)O)C(=O)N[C@@H](Cc1ccc(O)cc1)C(=O)N[C@@H](CC(C)C)C(=O)N[C@@H](CC(=O)O)C(=O)N[C@@H](CO)C(=O)N[C@@H](CCCCN)C(=O)N[C@@H](C)C(=O)N[C@@H](CCC(N)=O)C(=O)N[C@@H](CCCNC(=N)N)C(=O)N[C@@H](C)C(=O)N[C@@H](Cc1ccccc1)C(=O)N[C@H](C(=O)N[C@@H](CC(N)=O)C(=O)N[C@@H](Cc1c[nH]c2ccccc12)C(=O)N[C@@H](CC(C)C)C(=O)N[C@@H](CC(C)C)C(=O)N[C@@H](C)C(=O)NC(C)(C)C(=O)N[C@@H](CCCCN)C(N)=O)C(C)C
B4: Compound 19 (peptide)
peptide: H-Y[Aib]EGTFTSDYSIYLDKKAQKEFVNWLLA[Aib]K-NH2
SMILES: CC[C@H](C)[C@H](NC(=O)[C@H](CO)NC(=O)[C@H](Cc1ccc(O)cc1)NC(=O)[C@H](CC(=O)O)NC(=O)[C@H](CO)NC(=O)[C@@H](NC(=O)[C@H](Cc1ccccc1)NC(=O)[C@@H](NC(=O)CNC(=O)[C@H](CCC(=O)O)NC(=O)C(C)(C)NC(=O)[C@@H](N)Cc1ccc(O)cc1)[C@@H](C)O)[C@@H](C)O)C(=O)N[C@@H](Cc1ccc(O)cc1)C(=O)N[C@@H](CC(C)C)C(=O)N[C@@H](CC(=O)O)C(=O)N[C@@H](CCCCN)C(=O)N[C@@H](CCCCN)C(=O)N[C@@H](C)C(=O)N[C@@H](CCC(N)=O)C(=O)N[C@@H](CCCCN)C(=O)N[C@@H](CCC(=O)O)C(=O)N[C@@H](Cc1ccccc1)C(=O)N[C@H](C(=O)N[C@@H](CC(N)=O)C(=O)N[C@@H](Cc1c[nH]c2ccccc12)C(=O)N[C@@H](CC(C)C)C(=O)N[C@@H](CC(C)C)C(=O)N[C@@H](C)C(=O)NC(C)(C)C(=O)N[C@@H](CCCCN)C(N)=O)C(C)C
B5: Compound 17 (peptide)
peptide: H-Y[Aib]EGTFTSDYSIYLDEKAQRAFVNWLLA[Aib]K-NH2
SMILES: CC[C@H](C)[C@H](NC(=O)[C@H](CO)NC(=O)[C@H](Cc1ccc(O)cc1)NC(=O)[C@H](CC(=O)O)NC(=O)[C@H](CO)NC(=O)[C@@H](NC(=O)[C@H](Cc1ccccc1)NC(=O)[C@@H](NC(=O)CNC(=O)[C@H](CCC(=O)O)NC(=O)C(C)(C)NC(=O)[C@@H](N)Cc1ccc(O)cc1)[C@@H](C)O)[C@@H](C)O)C(=O)N[C@@H](Cc1ccc(O)cc1)C(=O)N[C@@H](CC(C)C)C(=O)N[C@@H](CC(=O)O)C(=O)N[C@@H](CCC(=O)O)C(=O)N[C@@H](CCCCN)C(=O)N[C@@H](C)C(=O)N[C@@H](CCC(N)=O)C(=O)N[C@@H](CCCNC(=N)N)C(=O)N[C@@H](C)C(=O)N[C@@H](Cc1ccccc1)C(=O)N[C@H](C(=O)N[C@@H](CC(N)=O)C(=O)N[C@@H](Cc1c[nH]c2ccccc12)C(=O)N[C@@H](CC(C)C)C(=O)N[C@@H](CC(C)C)C(=O)N[C@@H](C)C(=O)NC(C)(C)C(=O)N[C@@H](CCCCN)C(N)=O)C(C)C
B6: Compound 20 (peptide)
peptide: H-Y[Aib]EGTFTSDYSIYLDKKAQRAFVKWLLA[Aib]K-NH2
SMILES: CC[C@H](C)[C@H](NC(=O)[C@H](CO)NC(=O)[C@H](Cc1ccc(O)cc1)NC(=O)[C@H](CC(=O)O)NC(=O)[C@H](CO)NC(=O)[C@@H](NC(=O)[C@H](Cc1ccccc1)NC(=O)[C@@H](NC(=O)CNC(=O)[C@H](CCC(=O)O)NC(=O)C(C)(C)NC(=O)[C@@H](N)Cc1ccc(O)cc1)[C@@H](C)O)[C@@H](C)O)C(=O)N[C@@H](Cc1ccc(O)cc1)C(=O)N[C@@H](CC(C)C)C(=O)N[C@@H](CC(=O)O)C(=O)N[C@@H](CCCCN)C(=O)N[C@@H](CCCCN)C(=O)N[C@@H](C)C(=O)N[C@@H](CCC(N)=O)C(=O)N[C@@H](CCCNC(=N)N)C(=O)N[C@@H](C)C(=O)N[C@@H](Cc1ccccc1)C(=O)N[C@H](C(=O)N[C@@H](CCCCN)C(=O)N[C@@H](Cc1c[nH]c2ccccc12)C(=O)N[C@@H](CC(C)C)C(=O)N[C@@H](CC(C)C)C(=O)N[C@@H](C)C(=O)NC(C)(C)C(=O)N[C@@H](CCCCN)C(N)=O)C(C)C
B7: Compound 2 (peptide)
peptide: H-Y[Aib]EGTFTSDYSI[Aib]LDKKAQRAFVEWLLAQGPSSGAPPPS-NH2
SMILES: CC[C@H](C)[C@H](NC(=O)[C@H](CO)NC(=O)[C@H](Cc1ccc(O)cc1)NC(=O)[C@H](CC(=O)O)NC(=O)[C@H](CO)NC(=O)[C@@H](NC(=O)[C@H](Cc1ccccc1)NC(=O)[C@@H](NC(=O)CNC(=O)[C@H](CCC(=O)O)NC(=O)C(C)(C)NC(=O)[C@@H](N)Cc1ccc(O)cc1)[C@@H](C)O)[C@@H](C)O)C(=O)NC(C)(C)C(=O)N[C@@H](CC(C)C)C(=O)N[C@@H](CC(=O)O)C(=O)N[C@@H](CCCCN)C(=O)N[C@@H](CCCCN)C(=O)N[C@@H](C)C(=O)N[C@@H](CCC(N)=O)C(=O)N[C@@H](CCCNC(=N)N)C(=O)N[C@@H](C)C(=O)N[C@@H](Cc1ccccc1)C(=O)N[C@H](C(=O)N[C@@H](CCC(=O)O)C(=O)N[C@@H](Cc1c[nH]c2ccccc12)C(=O)N[C@@H](CC(C)C)C(=O)N[C@@H](CC(C)C)C(=O)N[C@@H](C)C(=O)N[C@@H](CCC(N)=O)C(=O)NCC(=O)N1CCC[C@H]1C(=O)N[C@@H](CO)C(=O)N[C@@H](CO)C(=O)NCC(=O)N[C@@H](C)C(=O)N1CCC[C@H]1C(=O)N1CCC[C@H]1C(=O)N1CCC[C@H]1C(=O)N[C@@H](CO)C(N)=O)C(C)C
B8: Compound 18 (peptide)
peptide: H-Y[Aib]EGTFTSDYSIYLDSKAKRAFVNWLLA[Aib]K-NH2
SMILES: CC[C@H](C)[C@H](NC(=O)[C@H](CO)NC(=O)[C@H](Cc1ccc(O)cc1)NC(=O)[C@H](CC(=O)O)NC(=O)[C@H](CO)NC(=O)[C@@H](NC(=O)[C@H](Cc1ccccc1)NC(=O)[C@@H](NC(=O)CNC(=O)[C@H](CCC(=O)O)NC(=O)C(C)(C)NC(=O)[C@@H](N)Cc1ccc(O)cc1)[C@@H](C)O)[C@@H](C)O)C(=O)N[C@@H](Cc1ccc(O)cc1)C(=O)N[C@@H](CC(C)C)C(=O)N[C@@H](CC(=O)O)C(=O)N[C@@H](CO)C(=O)N[C@@H](CCCCN)C(=O)N[C@@H](C)C(=O)N[C@@H](CCCCN)C(=O)N[C@@H](CCCNC(=N)N)C(=O)N[C@@H](C)C(=O)N[C@@H](Cc1ccccc1)C(=O)N[C@H](C(=O)N[C@@H](CC(N)=O)C(=O)N[C@@H](Cc1c[nH]c2ccccc12)C(=O)N[C@@H](CC(C)C)C(=O)N[C@@H](CC(C)C)C(=O)N[C@@H](C)C(=O)NC(C)(C)C(=O)N[C@@H](CCCCN)C(N)=O)C(C)C

Key:
human GLP-1 receptor = human GLP-1 receptor (human, UniProt P43220 24-463); assay: cell-based or functional assay
human GIP receptor = biological target: T1, human GIP receptor (human, UniProt P48546 22-466); assay: cell-based or functional assay
T1 sequence (looked up): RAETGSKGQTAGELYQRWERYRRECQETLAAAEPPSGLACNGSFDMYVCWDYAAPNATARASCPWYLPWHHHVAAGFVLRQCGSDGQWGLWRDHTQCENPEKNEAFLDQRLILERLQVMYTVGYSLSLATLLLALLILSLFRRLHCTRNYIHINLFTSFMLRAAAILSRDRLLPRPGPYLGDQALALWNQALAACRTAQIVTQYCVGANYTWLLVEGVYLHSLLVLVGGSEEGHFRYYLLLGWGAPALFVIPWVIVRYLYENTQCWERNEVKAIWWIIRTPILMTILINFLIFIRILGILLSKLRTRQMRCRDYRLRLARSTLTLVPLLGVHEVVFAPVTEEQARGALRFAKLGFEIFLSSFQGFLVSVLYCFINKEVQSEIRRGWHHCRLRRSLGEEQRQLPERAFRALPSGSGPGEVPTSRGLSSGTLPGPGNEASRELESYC

Binder	EC50, cAMP induction in HEK293 cells expressing human GLP-1 R (human GLP-1 receptor)	EC50, cAMP induction in HEK293 cells expressing human GIP R (human GIP receptor)
B1	0.012 nM	0.42 nM
B2	0.009 nM	0.08 nM
B3	0.012 nM	0.053 nM
B4	0.0073 nM	0.015 nM
B5	0.0074 nM	0.021 nM
B6	0.009 nM	0.049 nM
B7	0.015 nM	0.0068 nM
B8	0.015 nM	0.36 nM
